Measurements from patent US20240352438A1, “MEANS AND METHODS FOR DETOXIFYING OCHRATOXIN A” (DSM Austria GmbH, priority 2021, published 2024).

Tests used:
[1] = Enzymatic activity comparison: activity remaining after 65° C. for 10 min at pH 6.0, relative to SEQ ID NO: 1; assay type: physicochemical
Procedure: To compare the temperature behavior and thermostability of selected enzymes to one another, enzyme was incubated at 65° C. for 10 min at pH 6.0. The enzymatic activity remaining after incubation was compared to the remaining activity of the enzyme of SEQ ID NO: 1 after incubation, the latter being set to 100%, see Table 16.

[2] = OTA detoxification activity assay (specific activity, fluorescence reduction ex/em 390/450 nm); assay type: biochemical; details: SEQ ID NO: 1 = 100%
Procedure, shortened: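 Recombinant enzyme preparation with 200 ng/mL OTA in 100 mM sodium phosphate, at pH 6.0 and pH 7.5, 37° C. Degradation followed as the fall in fluorescence at ex/em 390/450 nm. Specific activity taken from the initial linear slope; one unit degrades 1 μmol OTA per min at a starting OTA of […].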

Molecule | Enzymatic activity remaining after incubation, compared to SEQ ID NO: 1 (set to 100%) [1] | Specific OTA detoxification activities in % compared to the enzyme of SEQ ID NO: 1, pH 6.0 [2] | Specific OTA detoxification activities in % compared to the enzyme of SEQ ID NO: 1, pH 7.5 [2]
138 (protein, exemplary polypeptide) MTTRTRILTAFLSLLAANACAADAAPAAPHTVVLRAARMFDGASGKLVDHPQLTIVGNKIVRIAQGDKAEVPAGAEVVDLGDATLLPGFIDAHVHLPGQSSDNWYGDFFDNMMRFPAEQALYGAYYARITLEAGFTSVRDVGSTDWVALGLRNAIDAGKVPGPRMLVSNYAVGSTGGHADQDPIPPHKLPLAGPLQGVCNGPEECRAAVRYQIKYGANVIKFMPSGGVLSLSDPVDAPELSQDEMNAVIGESHAWGRKVAAHAHGDKAAKMAVAAGVDSIEHGSFIEDDTLRAMKAKNVYLVPTISAIAHVEEKIGTFPPVIAEKGRAAAAHLRQTFRHAVQIGVPIALGTDAGVGAHGSNAREFRYMVENGLTPAQALLAGTANAARLLGTFDRVGTLEAGKLADVVAVPGNPIADITVTERPLFVMKDGVVVRRDAVR | 27% | 46% | 29%
144 (protein, exemplary polypeptide) MTTRTRILTAFLSLLAANACAADAAPAAPHTVVLRAARMFDGASGKLVDHPQLTIVGNKIVRIAQGDKAEVPAGAEVVDLGDATLLPGFIDAHVHLSGQSSDNWYGDFFDNMMRFPAEQALYGAYYARITLEAGFTSVRDVGSEDWVALGLRNAIDAGKVPGPRMLVSNYAVGSTGGHADQDPIPPHKLPLAGPLQGVCNGPEECRAAVRYQIKYGANVIKFMPSGGVLSLSDPVDAPELSQDEMNAVIGESHAWGRKVAAHAHGDKAAKMAVAAGVDSIEHGSFIEDDTLRAMKAKNVYLVPTISAIAHVEEKIGTFPPVIAEKGRAAAAHLRQTFRHAVQIGVPIALGTDAGVGAHGSNAREFRYMVENGLTPAQALLAGTANAARLLGTFDRVGTLEAGKLADVVAVPGNPIADITVTERPLFVMKDGVVVRRDAVR | 28% | 78% | 95%
146 (protein, exemplary polypeptide) MTTRTRILTAFLSLLAANACAADAAPAAPHTVVLRAARMFDGASGKLVDHPQLTIVGNKIVRIAQGDKAEVPAGAEVVDLGDATLLPGFIDAHVHLSGQSSDNWYGDFFDNMMRFPAEQALYGAYYARITLEAGFTSVRDVGSRDWVALGLRNAIDAGKVPGPRMLVSNYAVGSTGGHADQDPIPPHKLPLAGPLQGVCNGPEECRAAVRYQIKYGANVIKFMPSGGVLSLSDPVDAPELSQDEMNAVIGESHAWGRKVAAHAHGDKAAKMAVAAGVDSIEHGSFIEDDTLRAMKAKNVYLVPTISAIAHVEEKIGTFPPVIAEKGRAAAAHLRQTFRHAVQIGVPIALGTDAGVGAHGSNAREFRYMVENGLTPAQALLAGTANAARLLGTFDRVGTLEAGKLADVVAVPGNPIADITVTERPLFVMKDGVVVRRDAVR | 45% | 172% | 112%
148 (protein, exemplary polypeptide) MTTRTRILTAFLSLLAANACAADAAPAAPHTVVLRAARMFDGASGKLVDHPQLTIVGNKIVRIAQGDKAEVPAGAEVVDLGDATLLPGFIDAHVHLSGQSSDNWYGDFFDNMMRFPAEQALYGAYYARITLEAGFTSVRDVGSTDWVALGLRNAIDAGKVPGPRMLVSNYAVGSTGGHSDQDPIPPHKLPLAGPLQGVCNGPEECRAAVRYQIKYGANVIKFMPSGGVLSLSDPVDAPELSQDEMNAVIGESHAWGRKVAAHAHGDKAAKMAVAAGVDSIEHGSFIEDDTLRAMKAKNVYLVPTISAIAHVEEKIGTFPPVIAEKGRAAAAHLRQTFRHAVQIGVPIALGTDAGVGAHGSNAREFRYMVENGLTPAQALLAGTANAARLLGTFDRVGTLEAGKLADVVAVPGNPIADITVTERPLFVMKDGVVVRRDAVR | 35% | 40% | 19%
150 (protein, exemplary polypeptide) MTTRTRILTAFLSLLAANACAADAAPAAPHTVVLRAARMFDGASGKLVDHPQLTIVGNKIVRIAQGDKAEVPAGAEVVDLGDATLLPGFIDAHVHLSGQSSDNWYGDFFDNMMRFPAEQALYGAYYARITLEAGFTSVRDVGSTDWVALGLRNAIDAGKVPGPRMLVSNYPVGSTGGHADQDPVPPHKLPLAGPLQGVCNGPEECRAAVRYQIKYGANVIKFMPSGGVLSLSDPVDAPELSQDEMNAVIGESHAWGRKVAAHAHGDKAAKMAVAAGVDSIEHGSFIEDDTLRAMKAKNVYLVPTISAIAHVEEKIGTFPPVIAEKGRAAAAHLRQTFRHAVQIGVPIALGTDAGVGAHGSNAREFRYMVENGLTPAQALLAGTANAARLLGTFDRVGTLEAGKLADVVAVPGNPIADITVTERPLFVMKDGVVVRRDAVR | 22% | 89% | 62%
141 (protein, exemplary polypeptide) MTTRTRILTAFLSLLAANACAADAAPAAPHTVVLRAARMFDGASGKLVDHPQLTIVGNKIVRIAQGDKAEVPAGAEVVDLGDATLLPGFIDAHVHLSGQSSDNWYGDFFDNMMRFPAEQALYGAYYARITLEAGFTSVRDVASTDWVALGLRNAIDAGKVPGPRMLVSNYAVGSTGGHADQDPIPPHKLPLAGPLQGVCNGPEECRAAVRYQIKYGANVIKFMPSGGVLSLSDPVDAPELSQDEMNAVIGESHAWGRKVAAHAHGDKAAKMAVAAGVDSIEHGSFIEDDTLRAMKAKNVYLVPTISAIAHVEEKIGTFPPVIAEKGRAAAAHLRQTFRHAVQIGVPIALGTDAGVGAHGSNAREFRYMVENGLTPAQALLAGTANAARLLGTFDRVGTLEAGKLADVVAVPGNPIADITVTERPLFVMKDGVVVRRDAVR | 55% | 138% | 123%
139 (protein, exemplary polypeptide) MTTRTRILTAFLSLLAANACAADAAPAAPHTVVLRAARMFDGASGKLVDHPQLTIVGNKIVRIAQGDKAEVPAGAEVVDLGDATLLPGFIDAHVHLTGQSSDNWYGDFFDNMMRFPAEQALYGAYYARITLEAGFTSVRDVGSTDWVALGLRNAIDAGKVPGPRMLVSNYAVGSTGGHADQDPIPPHKLPLAGPLQGVCNGPEECRAAVRYQIKYGANVIKFMPSGGVLSLSDPVDAPELSQDEMNAVIGESHAWGRKVAAHAHGDKAAKMAVAAGVDSIEHGSFIEDDTLRAMKAKNVYLVPTISAIAHVEEKIGTFPPVIAEKGRAAAAHLRQTFRHAVQIGVPIALGTDAGVGAHGSNAREFRYMVENGLTPAQALLAGTANAARLLGTFDRVGTLEAGKLADVVAVPGNPIADITVTERPLFVMKDGVVVRRDAVR | 40% | 141% | 88%
145 (protein, exemplary polypeptide) MTTRTRILTAFLSLLAANACAADAAPAAPHTVVLRAARMFDGASGKLVDHPQLTIVGNKIVRIAQGDKAEVPAGAEVVDLGDATLLPGFIDAHVHLSGQSSDNWYGDFFDNMMRFPAEQALYGAYYARITLEAGFTSVRDVGSPDWVALGLRNAIDAGKVPGPRMLVSNYAVGSTGGHADQDPIPPHKLPLAGPLQGVCNGPEECRAAVRYQIKYGANVIKFMPSGGVLSLSDPVDAPELSQDEMNAVIGESHAWGRKVAAHAHGDKAAKMAVAAGVDSIEHGSFIEDDTLRAMKAKNVYLVPTISAIAHVEEKIGTFPPVIAEKGRAAAAHLRQTFRHAVQIGVPIALGTDAGVGAHGSNAREFRYMVENGLTPAQALLAGTANAARLLGTFDRVGTLEAGKLADVVAVPGNPIADITVTERPLFVMKDGVVVRRDAVR | 47% | 101% | 90%
143 (protein, exemplary polypeptide) MTTRTRILTAFLSLLAANACAADAAPAAPHTVVLRAARMFDGASGKLVDHPQLTIVGNKIVRIAQGDKAEVPAGAEVVDLGDATLLPGFIDAHVHLSGQSSDNWYGDFFDNMMRFPAEQALYGAYYARITLEAGFTSVRDVGSDDWVALGLRNAIDAGKVPGPRMLVSNYAVGSTGGHADQDPIPPHKLPLAGPLQGVCNGPEECRAAVRYQIKYGANVIKFMPSGGVLSLSDPVDAPELSQDEMNAVIGESHAWGRKVAAHAHGDKAAKMAVAAGVDSIEHGSFIEDDTLRAMKAKNVYLVPTISAIAHVEEKIGTFPPVIAEKGRAAAAHLRQTFRHAVQIGVPIALGTDAGVGAHGSNAREFRYMVENGLTPAQALLAGTANAARLLGTFDRVGTLEAGKLADVVAVPGNPIADITVTERPLFVMKDGVVVRRDAVR | 21% | 86% | 84%
140 (protein, exemplary polypeptide) MTTRTRILTAFLSLLAANACAADAAPAAPHTVVLRAARMFDGASGKLVDHPQLTIVGNKIVRIAQGDKAEVPAGAEVVDLGDATLLPGFIDAHVHLVGQSSDNWYGDFFDNMMRFPAEQALYGAYYARITLEAGFTSVRDVGSTDWVALGLRNAIDAGKVPGPRMLVSNYAVGSTGGHADQDPIPPHKLPLAGPLQGVCNGPEECRAAVRYQIKYGANVIKFMPSGGVLSLSDPVDAPELSQDEMNAVIGESHAWGRKVAAHAHGDKAAKMAVAAGVDSIEHGSFIEDDTLRAMKAKNVYLVPTISAIAHVEEKIGTFPPVIAEKGRAAAAHLRQTFRHAVQIGVPIALGTDAGVGAHGSNAREFRYMVENGLTPAQALLAGTANAARLLGTFDRVGTLEAGKLADVVAVPGNPIADITVTERPLFVMKDGVVVRRDAVR | 34% | 118% | 120%
